Assay [1] addresses Tie1 (Homo sapiens, UniProt P35590). Briefly: Immunofluorescence staining of Tie1-transfected COS1 cells. The following applies: COS1 cells transfected with pcDNA3-Tie1-V5; antibodies 5 μg/ml. The format is binding. As to the method: COS1 cells on the glass coverslips were transiently transfected with pcDNA3-Tie1-V5 (the V5-epitope was added to the 3′ terminus of pcDNA3-Tie1) (1 μg DNA per 10 cm cell culture plate) using FUGENE™ 6 (Roche) according to manufacturer's instruction and incubated for 48 h before staining. Cells were fixed in 4% paraformaldehyde for 10 min at 4° C. If required, the cells were permeabilized with 0.2% Triton X-100 in PBS for 5 min. Unspecific binding sites were blocked by incubation with 1% BSA in PBS for 30 min. The cells were then stained with anti-Tie1 antibodies (5 μg/ml) and anti-V5 antibodies for 1 h at room temperature, followed by incubation with FITC— conjugated anti-human antibodies (DAKO, 40 μg/ml) and TRITC-conjugated anti-mouse antibodies (DAKO, 15 μg/ml) for 30 min. Hoechst 33258 fluorochrome (Sigma, 0.5 μg/ml) was used for the staining of the nuclei.

The target of assay [2] is T1, Mouse Tie 1-Fc (Mus musculus, UniProt Q06806).
T1 sequence (Q06806 23-755 limits assumed): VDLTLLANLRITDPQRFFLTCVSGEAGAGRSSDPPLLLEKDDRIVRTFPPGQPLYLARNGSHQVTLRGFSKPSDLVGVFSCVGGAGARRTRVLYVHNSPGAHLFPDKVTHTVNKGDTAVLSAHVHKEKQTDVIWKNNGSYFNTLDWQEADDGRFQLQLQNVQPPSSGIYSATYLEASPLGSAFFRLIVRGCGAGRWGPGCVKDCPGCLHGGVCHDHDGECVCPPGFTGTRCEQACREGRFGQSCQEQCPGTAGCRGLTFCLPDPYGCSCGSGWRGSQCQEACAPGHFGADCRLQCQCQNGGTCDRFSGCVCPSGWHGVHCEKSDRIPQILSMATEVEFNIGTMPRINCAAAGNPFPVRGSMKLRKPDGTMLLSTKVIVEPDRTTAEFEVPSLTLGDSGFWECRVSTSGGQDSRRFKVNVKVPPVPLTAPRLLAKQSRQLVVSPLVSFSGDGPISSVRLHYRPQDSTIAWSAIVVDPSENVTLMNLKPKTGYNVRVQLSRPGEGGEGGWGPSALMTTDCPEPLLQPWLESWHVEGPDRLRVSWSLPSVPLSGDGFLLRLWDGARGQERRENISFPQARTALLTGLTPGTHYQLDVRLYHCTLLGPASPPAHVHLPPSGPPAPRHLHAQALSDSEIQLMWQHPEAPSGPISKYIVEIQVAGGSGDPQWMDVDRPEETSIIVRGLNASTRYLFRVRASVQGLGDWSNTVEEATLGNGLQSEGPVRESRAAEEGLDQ
Briefly: BIAcore, E3 Fabs on mouse Tie1-Fc. Particulars: E3 Fab over biotinylated mouse Tie-1 Fc on streptavidin chip; 1:1 model. The format is binding. Here is the method: Mouse Tie 1-Fc antigen (0.5 mg/ml stock) was biotinylated using established procedures and after dilution 1/100 fold in HBS this was then used for capturing to a streptavidin chip. This was coated to a resonance value of 740RU. All analysis was performed in HBS buffer. The parental Fab E3 0.587 mg/ml (11740 nM) was diluted 1/587 in HBS+BSA to obtain a stock of 20 nM and the germlined Fab E3 0.025 mg/ml (500 nM) was diluted 1/25 in HBS+BSA to obtain a stock of 20 nM. Serial dilutions were made of each Fab preparation to obtain 10 nM, 5 nM, 2.5 nM, and 1.25 nM. For the association phase samples were injected at 30 μl/min for 4 minutes using kinject program. This was followed by a 10 minutes dissociation phase, any remaining sample was stripped from the Tie-1 Fc surface at a flow of 50 μl/min with a single injection of 50 mM NaOH+1 M NaCl for 18 seconds. All samples were run and analyzed in duplicate.
Sensorgrams were analyzed using the simultaneous ka/kd fitting program with 1:1 model in the BIAEVALUATION™ software 3.1.

Assay [3] deals with T2, recombinant human Tie1-Fc (Homo sapiens, UniProt P35590).
T2 construct: selected against the Tie1 extracellular domain fused to human Fc or to a histidine purification tag
T2 sequence (P35590 22-759 limits assumed): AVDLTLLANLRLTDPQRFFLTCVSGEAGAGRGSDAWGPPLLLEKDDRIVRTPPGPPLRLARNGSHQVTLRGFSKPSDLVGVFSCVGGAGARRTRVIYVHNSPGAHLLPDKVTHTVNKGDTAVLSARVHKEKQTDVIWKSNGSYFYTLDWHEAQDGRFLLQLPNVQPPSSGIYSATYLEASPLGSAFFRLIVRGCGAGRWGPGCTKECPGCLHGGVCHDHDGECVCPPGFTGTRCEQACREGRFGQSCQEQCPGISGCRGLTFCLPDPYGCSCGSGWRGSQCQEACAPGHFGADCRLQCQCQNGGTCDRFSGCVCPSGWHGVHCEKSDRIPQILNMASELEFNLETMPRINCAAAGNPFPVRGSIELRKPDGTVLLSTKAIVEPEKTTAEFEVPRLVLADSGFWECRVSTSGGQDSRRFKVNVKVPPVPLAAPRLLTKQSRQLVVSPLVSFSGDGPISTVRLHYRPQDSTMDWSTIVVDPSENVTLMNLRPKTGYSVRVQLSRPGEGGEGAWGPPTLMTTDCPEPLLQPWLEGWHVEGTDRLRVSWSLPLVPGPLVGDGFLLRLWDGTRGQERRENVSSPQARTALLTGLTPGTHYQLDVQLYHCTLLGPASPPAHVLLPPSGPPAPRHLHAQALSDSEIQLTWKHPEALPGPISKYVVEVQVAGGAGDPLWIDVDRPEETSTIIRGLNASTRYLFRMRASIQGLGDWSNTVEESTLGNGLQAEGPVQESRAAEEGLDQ
Briefly: BIAcore, parental and germlined E3b Fabs on human Tie-1/Fc. The format is binding. The following applies: E3 Fab over human Tie-1/Fc coated on CM5 chip; 1:1 model. Here is the method:
Recombinant human Tie-1/Fc was coated on a CM5 chip. The surface of the chip was first activated with a 7-minute pulse of 0.05 M NHS/0.2 M EDC, then Tie-1/Fc (2 μg/ml in 10 mM sodium acetate, pH 4.0) was run over the chip surface until 750 RUs were coated on the surface. All flow cells were subsequently deactivated with a 7-minute pulse of 1 M ethanolamine hydrochloride, pH 8.5. All further experiments were performed in HBS buffer.
The parental and the germlined E3b Fabs were prepared. A series of dilution (50, 25, 12.5, 6.25 and 3.125 nM) was prepared in HBS buffer. Samples were injected at 30 μl/min for 5.3 minutes using the KINJECT™ program. This was followed by a 10-minute dissociation phase, and the remaining Fab was stripped from the surface with a single 18-sec injection of 50 mM NaOH/1 M NaCl.
Sensorgrams were analyzed using the simultaneous ka/kd fitting program from the BIAEVALUATION™ software 3.1 assuming a 1:1 model.

The target of assay [4] is T3, Tie1-EpoR chimeric receptor (UniProt P14753+P35590).
T3 construct: the PCR amplified extracellular part of human Tie1 (bp 37-2316 of X60975); expressed in transfected cells
T3 sequence (P35590+P14753 with tags, fused parts or gaps): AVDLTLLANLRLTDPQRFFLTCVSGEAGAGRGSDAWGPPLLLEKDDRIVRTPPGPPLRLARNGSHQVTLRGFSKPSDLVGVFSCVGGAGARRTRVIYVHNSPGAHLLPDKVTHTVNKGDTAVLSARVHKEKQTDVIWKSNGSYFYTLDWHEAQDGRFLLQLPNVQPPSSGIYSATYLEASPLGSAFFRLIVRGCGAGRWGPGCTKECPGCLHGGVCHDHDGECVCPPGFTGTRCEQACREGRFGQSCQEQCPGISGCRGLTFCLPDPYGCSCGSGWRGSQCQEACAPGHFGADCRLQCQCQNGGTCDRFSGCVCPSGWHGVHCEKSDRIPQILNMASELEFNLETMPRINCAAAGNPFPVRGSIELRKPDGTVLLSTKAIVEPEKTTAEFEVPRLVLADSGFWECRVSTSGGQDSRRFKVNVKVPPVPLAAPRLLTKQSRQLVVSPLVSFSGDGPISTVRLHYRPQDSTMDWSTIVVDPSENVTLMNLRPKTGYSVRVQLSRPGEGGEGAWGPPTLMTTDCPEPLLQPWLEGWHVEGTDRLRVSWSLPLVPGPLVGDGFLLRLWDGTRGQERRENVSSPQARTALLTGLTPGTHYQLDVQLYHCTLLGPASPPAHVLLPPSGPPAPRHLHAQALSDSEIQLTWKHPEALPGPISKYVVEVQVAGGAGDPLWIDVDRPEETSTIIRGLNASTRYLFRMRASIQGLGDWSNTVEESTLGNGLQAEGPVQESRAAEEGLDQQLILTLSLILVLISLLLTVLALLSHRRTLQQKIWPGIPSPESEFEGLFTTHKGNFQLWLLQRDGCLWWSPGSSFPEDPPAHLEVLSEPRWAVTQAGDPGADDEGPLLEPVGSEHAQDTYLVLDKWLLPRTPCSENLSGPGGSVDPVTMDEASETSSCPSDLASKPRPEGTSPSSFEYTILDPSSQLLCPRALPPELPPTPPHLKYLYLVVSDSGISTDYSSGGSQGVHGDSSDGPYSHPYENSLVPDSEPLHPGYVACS
Briefly: Ba/F3 bioassay (Tie1/EpoR chimeric BaF3 cell assay), MTT viability. The format is cell-based, human. The following applies: 100 ng/ml E3 IgG together with 100 (1:1) or 500 (1:5) ng/ml of the other antibody. From the text: To generate Tie1-EpoR expressing Ba/F3 cells for the bioassay, Ba/F3 pre-B cells were stably transfected with a nucleic acid that expresses chimeric receptor containing the extracellular domain of human Tie1 fused with the transmembrane and cytoplasmic domains of the mouse erythropoietin receptor. The nucleic acid used was a Tie1-EpoR chimeric cDNA in a pEF-BOS expression vector. The nucleic acid encoding the chimeric receptor was constructed by cloning the PCR amplified extracellular part of human Tie1 (bp 37-2316 of X60975) as EcoRI-BglII fragment into mEpoR-pcDNA vector. The cDNA encoding for the chimeric receptor consisting of the extracellular part of Tie1 fused with the transmembrane and intracellular domains of EpoR was subcloned into the pEF-BOS expression vector. Vector was linearized and co-transfected into Ba/F3 cells with pcDNA3.1(+) Zeo vector (Invitrogen). Stable cell pools were generated by selection with 250 μg/ml Zeocin. The expression of Tie1/EpoR fusion protein in several clones was analyzed by Western blotting with an antibody against EpoR.
To perform the assays, Ba/F3 cells expressing the Tie 1-EpoR chimera were split in 96-well microtiter plates at 50 000 cells/well in the presence of the indicated concentrations of anti-Tie1 antibodies. As controls, Zeocin resistant pools not expressing the Tie1-EpoR were used. After 48 h, the viability of the cells was determined by adding MTT (3-(4,5-dimethylthiazol-2-yl)-2,5-diphenyl tetrazolium bromide (Sigma), 0.5 mg/ml), followed by further 2 h of culture, addition of an equal volume of cell lysis solution (10% SDS, 10 mM HCl) and incubation overnight at 37° C. Absorbance was measured at 540 nm.
Although no ligand for Tie1 has been identified, we used the following efficient screening method for Tie1-binding proteins. Interleukin-3 dependent pre-B-lymphocyte (Ba/F3) cells were transfected with a construct that expresses a Tie1-EpoR fusion protein. Since Ba/F3 cells are IL-3 dependent, they die unless IL-3 is provided. However, Tie-EpoR receptor expressing Ba/F3 cells can survive and proliferate if the medium contains a Tie1-binding protein, either a natural ligand or an artificial mimetic. Cell survival can be quantitated, e.g., by colorimetric MTT-assay, which measures mitochondrial activity.

These results are taken from US7871610B2, “Antibodies to Tie1 ectodomain” (Dyax Corp., priority 2003, dated 2011).

Tie1, sequence (P35590 22-1138): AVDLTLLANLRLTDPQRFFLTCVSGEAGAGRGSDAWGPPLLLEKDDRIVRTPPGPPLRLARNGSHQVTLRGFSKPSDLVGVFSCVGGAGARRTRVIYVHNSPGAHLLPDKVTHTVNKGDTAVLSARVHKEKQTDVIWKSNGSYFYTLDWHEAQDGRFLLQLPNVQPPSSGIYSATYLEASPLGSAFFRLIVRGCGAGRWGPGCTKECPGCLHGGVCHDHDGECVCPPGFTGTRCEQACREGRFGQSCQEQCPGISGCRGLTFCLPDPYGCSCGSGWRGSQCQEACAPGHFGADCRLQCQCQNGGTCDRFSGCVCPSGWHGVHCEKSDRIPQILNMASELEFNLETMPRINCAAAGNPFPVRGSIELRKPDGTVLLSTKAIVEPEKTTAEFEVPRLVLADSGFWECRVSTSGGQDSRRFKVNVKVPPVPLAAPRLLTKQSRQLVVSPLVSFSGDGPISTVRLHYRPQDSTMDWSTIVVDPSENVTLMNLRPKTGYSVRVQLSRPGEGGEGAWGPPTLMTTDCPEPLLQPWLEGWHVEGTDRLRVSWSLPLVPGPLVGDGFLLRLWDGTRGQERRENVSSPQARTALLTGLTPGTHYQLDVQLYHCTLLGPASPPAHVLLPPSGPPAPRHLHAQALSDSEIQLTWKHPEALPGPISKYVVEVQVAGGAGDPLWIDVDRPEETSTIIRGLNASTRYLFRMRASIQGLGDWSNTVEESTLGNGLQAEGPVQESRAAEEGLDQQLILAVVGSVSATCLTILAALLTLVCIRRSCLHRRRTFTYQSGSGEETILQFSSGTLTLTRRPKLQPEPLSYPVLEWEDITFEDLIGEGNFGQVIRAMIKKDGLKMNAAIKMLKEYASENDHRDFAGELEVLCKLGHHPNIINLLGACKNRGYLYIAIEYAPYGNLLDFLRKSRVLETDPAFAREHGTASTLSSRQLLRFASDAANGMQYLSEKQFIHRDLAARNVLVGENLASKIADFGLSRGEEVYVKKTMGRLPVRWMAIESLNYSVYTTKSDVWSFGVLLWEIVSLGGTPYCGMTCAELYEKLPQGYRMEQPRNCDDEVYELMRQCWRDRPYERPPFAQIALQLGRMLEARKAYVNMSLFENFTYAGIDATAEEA

B1: P-F4: anti-Tie1 antibody; VH SEQ ID NO:48, VL SEQ ID NO:50 (antibody, V domains shown)
VH: EVQLLESGGGLVQPGGSLRLSCAASGFTFSAYMMSWVRQAPGKGLEWVSSIYPSGGYTYYADSVKGRFTISRDNSKNTLYLQMNSLRAEDTAVYYCARGLRGGPDYWGQGTLVTVSSASTKGPSVFPLAPSSKSTSGGTAALG
VL: QDIQMTQSPSTLSAYVGDSVTITCRASQSVRRSLAWYQQRPGKAPKSLIYKASTLETGVPPRFSGSGSGTEFTLTISSLQPEDSAIYYCQQYGSFPLTFGGG
modifications: Synthetically generated peptide
With B1, the “IF: Tie1-transfected” value in assay [1] is recorded as “cross”.

B2: E3 Fab parental (antibody, V domains shown)
VH: EVQLLESGGGLVQPGGSLRLSCAASGFTFSMYGMVWVRQAPGKGLEWVSVISPSGGNTGYADSVKGRFTISRDNSKNTLYLQVNSLRAEDTAVYYCARAPRGYSYGYYYWGQGTLVTVSSASTKGPSVFPLAPSSKSTSGG
VL: DIQMTQSPLSLSASVGDRVTITCRASQGIGHYLAWYQQKPGKVPKLLIYTASTLQSGVPSRFSGSGSGTDFTLTINSLQPEDVATYYCQQFNSYPHTFGQGTRLDIK
In assay [2], B2 gave a ka of 246000 M⁻¹ s⁻¹ and a kd of 0.00095 s⁻¹.

B3: E3 Fab Parental (antibody, V domains shown)
VH: B2 VH
VL: B2 VL
With B3, in assay [3], the ka was found to be 88100 M⁻¹ s⁻¹ and the kd stood at 0.00105 s⁻¹.

B4: P-B1: anti-Tie1 antibody; VH SEQ ID NO:20, VL SEQ ID NO:22 (antibody, V domains shown)
VH: EVQLLESGGGLVQPGGSLRLSCAASGFTFSRYPMVWVRQAPGKGLEWVSVISPSGGQTFYADSVKGRFTISRDNSKNTLYLQMNSLRAEDTAVYYCARGVLTTAFDIWGQGTMVTVSSASTKGPSVFPLAPSSKAPLGAQRPWAAWSR
VL: QDIQMTQSPSSLSASVGDRVTITCRASQNINSYLNWYQQKPGQAPKLLIYAASNLETAVPSRFSGSGSGTDFTLTISSLQPEDFATYYCQQFNTYPLTFGGG
modifications: Synthetically generated peptide
With B4, in assay [4], the “effect on the survival effect of E3 IgG in Tie1-EpoR Ba/F3 assay” value is reported as “inhibited the viability effect of E3 IgG to some extent”. The “IF: Tie1-transfected” value in assay [1] was “weak”.
